Data reported in the supplement of paper PMC6757056.
± gives the standard deviation of the averaged measurements.

B1: library; a variant is named by its letters at N, in order (parent)
chain: GCUGUCACCGGUGCUUGGUACGUUAUAUUCAGCCGGUCUGAUGAGUCUNNNNNNAGACGAAACAGC

How the values were obtained:
(6R,S)-folinic acid [1] = variants of: B1; assay: normalized RNA/DNA level without ligand (relative to sTRSVctl = 100) (log10 (% of sTRSVctl)); HEK293T overexpressing SLC46A1; higher = less ribozyme self-cleavage, higher mRNA level; details: without (6R,S)-folinic acid; ligand present: no
Procedure, shortened: (§1)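 Total RNA, extracted with EDTA 72 h after HEK293T cells were transfected with 4 µg per 6-well well of reporter-linked ribozyme switch library plasmids, was reverse-transcribed, amplified, barcoded and sequenced. Ligand, if used, was added 1 h before transfection. RNA level was derived from RNA reads divided by DNA reads and normalized to a spiked-in non-cleaving sequence or to the top sequences. This was multiplied by 100 and log10-transformed, with the top set of 25 sequences and a ≥100 DNA read minimum.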

(6R,S)-folinic acid [2] = variants of: B1; assay: normalized RNA/DNA level with ligand (relative to sTRSVctl = 100) (log10 (% of sTRSVctl)); HEK293T overexpressing SLC46A1; ligand concentration (+) RNA-Seq: 6 mM; higher = less ribozyme self-cleavage, higher mRNA level; details: with (6R,S)-folinic acid; ligand present: yes
Procedure, shortened: as §1

Variant	normalized RNA/DNA level without ligand (log10) ((6R,S)-folinic acid [1])	normalized RNA/DNA level with ligand (log10) ((6R,S)-folinic acid [2])
AUUCUA	2.005 ± 0.0047	1.999 ± 0.01
AUUCUG	1.94 ± 0.011	1.99 ± 0.043
AUUCUC	2.072 ± 0.012	2.04 ± 0.042
AUUCUU	2.02 ± 0.027	2.04 ± 0.023
GUUCCC	2.075 ± 0.018	2.052 ± 0.017
GUUCCG	2.032 ± 0.011	2.02 ± 0.04
GUUCCU	2.03 ± 0.0037	2.04 ± 0.045
UUUACG	1.859 ± 0.0091	1.98 ± 0.03
AUUGGU	1.884 ± 0.011	1.99 ± 0.056
AUUGGC	2.011 ± 0.012	2.05 ± 0.012
AUUGGG	1.7701 ± 0.00019	1.99 ± 0.033
UUUCGU	1.98 ± 0.017	2.01 ± 0.012
UUUCGC	2.01 ± 0.016	2 ± 0.011
UUUCGG	1.9984 ± 0.00042	1.99 ± 0.022
UUUCGA	2.0498 ± 0.00034	2.04 ± 0.024
UUUAGU	1.957 ± 0.0051	1.99 ± 0.015
UUUAGG	1.879 ± 0.012	2 ± 0.045
UUUAGC	1.998 ± 0.005	2 ± 0.044
UUUAGA	1.99 ± 0.02	2.03 ± 0.025
AUUCCA	2.009 ± 0.0091	2.02 ± 0.047
AUUCCC	2.018 ± 0.019	1.99 ± 0.052
AUUCCG	1.997 ± 0.0068	2.037 ± 0.018
AUUCCU	2.044 ± 0.0048	2.047 ± 0.018
CUUGCA	2.019 ± 0.0087	2.03 ± 0.043

Variant	normalized RNA/DNA level without ligand (log10) ((6R,S)-folinic acid [1])	normalized RNA/DNA level with ligand (log10) ((6R,S)-folinic acid [2])
CUUGCG	2.03 ± 0.017	2.01 ± 0.029
CUUGCC	2.03 ± 0.0023	2 ± 0.064
CUUGCU	2.051 ± 0.0067	2.04 ± 0.012
CUUCGG	2.063 ± 0.0068	2.036 ± 0.0089
CUUCGC	2.067 ± 0.018	2.072 ± 0.018
CUUCGU	2.053 ± 0.0097	2.04 ± 0.048
CUUCGA	2.053 ± 0.0024	2.06 ± 0.038
CUUGGU	2.01 ± 0.021	2.01 ± 0.029
GUUGUC	2.02 ± 0.025	2.021 ± 0.019
UUUGUA	1.959 ± 0.0085	2.007 ± 0.014
GUUACU	2.03 ± 0.027	2.03 ± 0.037
GUUACG	1.988 ± 0.012	2.02 ± 0.034
UUUGAC	2.012 ± 0.0044	2.011 ± 0.018
CUUAUC	2.089 ± 0.009	2.08 ± 0.033
CUUAUA	1.961 ± 0.019	2 ± 0.029
CUUAUG	2.013 ± 0.005	2.0211 ± 0.00067
AUUGAC	1.99 ± 0.016	1.97 ± 0.046
AUUGAU	1.93 ± 0.0058	2.01 ± 0.036
GUUAUU	2.016 ± 0.0067	2.007 ± 0.02
GUUAUC	2.027 ± 0.012	2.044 ± 0.0079
AUUGUA	1.941 ± 0.016	2 ± 0.02
AUUGUC	2.06 ± 0.038	2.05 ± 0.066
AUUCAA	1.9988 ± 0.0016	2.01 ± 0.029
AUUCAU	2 ± 0.026	2.0232 ± 0.0017

Variant	normalized RNA/DNA level without ligand (log10) ((6R,S)-folinic acid [1])	normalized RNA/DNA level with ligand (log10) ((6R,S)-folinic acid [2])
AUUCAC	2.04 ± 0.0098	1.994 ± 0.019
GUUAGA	2 ± 0.02	2.021 ± 0.0089
GUUAGU	1.979 ± 0.0095	2.03 ± 0.044
GUUAGC	1.92 ± 0.025	1.99 ± 0.02
CUUGAC	1.998 ± 0.0057	2.033 ± 0.0045
CUUGAA	1.958 ± 0.01	1.99 ± 0.049
GUUCGU	1.998 ± 0.019	2.01 ± 0.035
GUUCGA	2.018 ± 0.0029	2.001 ± 0.015
AUUCGU	1.99 ± 0.0072	1.97 ± 0.057
AUUCGG	1.952 ± 0.017	2.04 ± 0.026
AUUCGC	2.039 ± 0.0092	2.06 ± 0.041
AUUCGA	1.992 ± 0.0073	2.03 ± 0.035
GUUGCC	2.0274 ± 0.0015	1.998 ± 0.018
GUUGCA	2 ± 0.011	2.01 ± 0.038
GUUGGC	1.914 ± 0.019	2.02 ± 0.036
GUUGGG	1.912 ± 0.013	2.042 ± 0.017
GUUGAU	1.97 ± 0.021	2.003 ± 0.019
UUUGGU	1.953 ± 0.013	1.98 ± 0.071
UUUGGC	1.995 ± 0.0079	2.04 ± 0.027
CUUGUC	2.091 ± 0.018	2.06 ± 0.027
CUUGUA	2.027 ± 0.018	2.036 ± 0.013
AUUAUG	1.94 ± 0.021	2.02 ± 0.033
AUUAUC	2.062 ± 0.01	2.03 ± 0.022
AUUAUA	1.9581 ± 0.0013	1.97 ± 0.025

Variant	normalized RNA/DNA level without ligand (log10) ((6R,S)-folinic acid [1])	normalized RNA/DNA level with ligand (log10) ((6R,S)-folinic acid [2])
AUUAGU	1.95 ± 0.028	2.01 ± 0.028
AUUAGC	1.987 ± 0.0093	2.021 ± 0.0097
AUUGCC	2.02 ± 0.029	2.02 ± 0.055
AUUGCU	2.015 ± 0.0026	1.979 ± 0.012
AUUGCA	1.976 ± 0.0096	1.98 ± 0.05
GUUCAU	2.019 ± 0.0083	2.02 ± 0.034
GUUCAG	1.963 ± 0.0042	2 ± 0.043
UUUCUA	2.019 ± 0.011	2.042 ± 0.0037
UUUCUU	2.043 ± 0.0064	2.02 ± 0.021
UUUCUC	2.118 ± 0.0058	2.062 ± 0.014
CUUCAG	2.027 ± 0.015	2.099 ± 0.011
CUUCAA	2.023 ± 0.0088	2.05 ± 0.042
CUUCAC	2.027 ± 0.0051	1.988 ± 0.011
CUUCAU	2 ± 0.0049	1.99 ± 0.037
CUUCCA	2.023 ± 0.014	2.02 ± 0.037
CUUCCG	2.05 ± 0.029	2.06 ± 0.046
CUUCCC	2.01 ± 0.03	2.002 ± 0.007
CUUCCU	1.996 ± 0.0085	2.02 ± 0.059
CUUAGU	2.01 ± 0.0085	2.014 ± 0.0092
CUUAGA	2.03 ± 0.01	2.04 ± 0.029
CUUAGC	2.008 ± 0.019	2.01 ± 0.08
CUUAGG	2.041 ± 0.018	2.052 ± 0.014
UUUAUU	1.988 ± 0.0096	2.03 ± 0.033
UUUAUA	1.993 ± 0.015	2 ± 0.03

Variant	normalized RNA/DNA level without ligand (log10) ((6R,S)-folinic acid [1])	normalized RNA/DNA level with ligand (log10) ((6R,S)-folinic acid [2])
UUUAUC	2.103 ± 0.0028	2.065 ± 0.016
GUUCUG	1.981 ± 0.015	1.987 ± 0.014
GUUCUU	2.0414 ± 0.0017	2.04 ± 0.028
GUUCUC	2.112 ± 0.0075	2.076 ± 0.02
UUUCAU	1.993 ± 0.0093	2.02 ± 0.022
UUUCAA	1.997 ± 0.0084	2.01 ± 0.029
UUUCAC	2.0237 ± 0.0014	2.0028 ± 0.00095
UUUGCC	2.001 ± 0.004	2.04 ± 0.037
CUUACG	2.007 ± 0.0022	2 ± 0.037
CUUACC	2.022 ± 0.0014	1.995 ± 0.016
CUUACU	2 ± 0.023	2.02 ± 0.047
AUUACU	2.042 ± 0.012	2.04 ± 0.031
AUUACG	1.941 ± 0.005	2.026 ± 0.011
UUUCCU	2.0566 ± 0.0006	2.058 ± 0.018
UUUCCA	2.009 ± 0.0042	2.01 ± 0.027
UUUCCC	2.043 ± 0.0052	2.02 ± 0.075
CUUCUG	2.06 ± 0.021	2.026 ± 0.0091
CUUCUA	2.0515 ± 0.00054	2.083 ± 0.015
CUUCUU	2.016 ± 0.0066	1.97 ± 0.025
CUUCUC	2.05 ± 0.0097	2.02 ± 0.056
